Measurements published in patent CN115992129A (YEASEN BIOLOGICAL TECH SHANGHAI CO LTD, dated 2023).

Target: T1, BSA (UniProt P02769 25-607)
T1 construct: Negative control antigen in ELISA; also called BSA对照
Assay: ELISA, BSA coated and blocked as control, HRP anti-IgY secondary

T1 sequence (P02769 25-607 limits assumed): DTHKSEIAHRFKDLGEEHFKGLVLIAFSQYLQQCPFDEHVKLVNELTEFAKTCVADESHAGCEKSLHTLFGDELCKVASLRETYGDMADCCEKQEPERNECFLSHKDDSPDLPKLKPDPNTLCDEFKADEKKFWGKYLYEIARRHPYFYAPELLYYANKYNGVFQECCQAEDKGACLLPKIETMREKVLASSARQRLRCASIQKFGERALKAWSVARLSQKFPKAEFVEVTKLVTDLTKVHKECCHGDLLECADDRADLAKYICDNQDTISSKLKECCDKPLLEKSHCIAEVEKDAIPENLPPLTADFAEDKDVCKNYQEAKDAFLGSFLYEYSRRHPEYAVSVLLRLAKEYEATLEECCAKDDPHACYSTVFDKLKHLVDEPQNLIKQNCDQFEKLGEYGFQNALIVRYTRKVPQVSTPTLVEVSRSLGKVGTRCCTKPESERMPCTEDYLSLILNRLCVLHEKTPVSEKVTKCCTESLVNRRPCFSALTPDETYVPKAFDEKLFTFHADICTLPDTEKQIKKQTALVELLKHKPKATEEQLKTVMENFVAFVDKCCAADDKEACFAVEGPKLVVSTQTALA

B1: ProteinA抗体IgY-81 (antibody, V domains shown)
VH: AVTLDESGGGLQTPGGALSLVCKASGFTFSSNGMGWVRQAPGKGLEYVASISNDGSLTDYASPVKGRATISRDNGQSTVRLQLNNLRAEDTGTYYCAKSPGGGWLADPIDAWGRGTEVIVSS
VL: QAALTQPASVSANPGETVQITCSGGGSSRYYGWYQQKSPGSAPVTLIYDNINRPSGIPSRFSGSTSGSTGTLSITGVRAEDEAVYYCGSFDSSGTGIFGAGTTLTVL
notes: Coating (capture) antibody in the sandwich ELISA
B1: no binding (tested: 1μg/ml, two-fold dilutions).

B2: ProteinA抗体IgY-80 (antibody, V domains shown)
VH: AVTLDESGGGLQTPGGTLSLVCKASGFTFSDRGMHWVRQAPGKGLEWVAGTYTSGSITYYAPAVNGRATISRDNGQSTLRLQLNNLRAEDSGTYYCARDFGPSGWNAGSIDAWGHGTEVIVSS
VL: QAALTQPSSVSANLGGTVKITCSGGGSRYGYMYGWIQQTSPGSAPVTVIYDNTNRPSNIPSRFSGSLSGSTNTLTITGVQAEDEAVYFCGSYEGTTLTFGAGTTLTVL
notes: Biotin-conjugated as the detection antibody in the sandwich ELISA
B2: no binding (tested: 1μg/ml, two-fold dilutions).
